The results in this text go back to PMC12162048 (Blood Vessels, Thrombosis & Hemostasis, 2024).

Test [1] deals with T1, protein S, purified, P07225.
T1 chain: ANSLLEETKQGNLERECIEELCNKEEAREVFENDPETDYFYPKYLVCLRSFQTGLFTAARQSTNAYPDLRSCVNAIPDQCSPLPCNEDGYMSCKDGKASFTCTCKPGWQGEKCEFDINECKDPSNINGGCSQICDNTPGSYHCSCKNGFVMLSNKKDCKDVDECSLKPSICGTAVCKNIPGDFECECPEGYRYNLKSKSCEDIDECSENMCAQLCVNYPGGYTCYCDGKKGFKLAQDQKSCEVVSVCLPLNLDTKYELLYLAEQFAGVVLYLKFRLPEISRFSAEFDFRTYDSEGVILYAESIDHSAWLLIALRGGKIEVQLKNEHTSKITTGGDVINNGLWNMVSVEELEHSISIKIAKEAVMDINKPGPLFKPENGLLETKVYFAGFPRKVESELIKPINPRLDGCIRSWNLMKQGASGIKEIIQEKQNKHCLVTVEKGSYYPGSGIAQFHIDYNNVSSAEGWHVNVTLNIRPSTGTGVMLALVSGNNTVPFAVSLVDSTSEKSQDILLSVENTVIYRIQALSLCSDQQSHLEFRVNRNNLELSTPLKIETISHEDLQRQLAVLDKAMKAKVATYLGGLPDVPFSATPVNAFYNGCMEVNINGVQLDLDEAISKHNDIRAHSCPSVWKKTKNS
Kind of test: native gel or EMSA. The conditions noted are these: remark: other sources report otherwise. A general note: A gel shift assay detects complexes by their altered migration in electrophoresis.

Test [2] deals with von Willebrand factor of plasma (human (endogenous in plasma), UniProt P04275 764-2813). Nature of the test: ELISA. In general terms: An ELISA detects its analyte on a solid surface through an enzyme-linked reagent.

B1: protein S, purified, P07225 42-676 (natural protein)
chain: ANSLLEETKQGNLERECIEELCNKEEAREVFENDPETDYFYPKYLVCLRSFQTGLFTAARQSTNAYPDLRSCVNAIPDQCSPLPCNEDGYMSCKDGKASFTCTCKPGWQGEKCEFDINECKDPSNINGGCSQICDNTPGSYHCSCKNGFVMLSNKKDCKDVDECSLKPSICGTAVCKNIPGDFECECPEGYRYNLKSKSCEDIDECSENMCAQLCVNYPGGYTCYCDGKKGFKLAQDQKSCEVVSVCLPLNLDTKYELLYLAEQFAGVVLYLKFRLPEISRFSAEFDFRTYDSEGVILYAESIDHSAWLLIALRGGKIEVQLKNEHTSKITTGGDVINNGLWNMVSVEELEHSISIKIAKEAVMDINKPGPLFKPENGLLETKVYFAGFPRKVESELIKPINPRLDGCIRSWNLMKQGASGIKEIIQEKQNKHCLVTVEKGSYYPGSGIAQFHIDYNNVSSAEGWHVNVTLNIRPSTGTGVMLALVSGNNTVPFAVSLVDSTSEKSQDILLSVENTVIYRIQALSLCSDQQSHLEFRVNRNNLELSTPLKIETISHEDLQRQLAVLDKAMKAKVATYLGGLPDVPFSATPVNAFYNGCMEVNINGVQLDLDEAISKHNDIRAHSCPSVWKKTKNS
Take B1: the stoichiometry N (in general, a count of units in the complex or per binding partner) in test [1] stood at 2.

B2: biotinylated protein S (natural protein)
chain: ANSLLEETKQGNLERECIEELCNKEEAREVFENDPETDYFYPKYLVCLRSFQTGLFTAARQSTNAYPDLRSCVNAIPDQCSPLPCNEDGYMSCKDGKASFTCTCKPGWQGEKCEFDINECKDPSNINGGCSQICDNTPGSYHCSCKNGFVMLSNKKDCKDVDECSLKPSICGTAVCKNIPGDFECECPEGYRYNLKSKSCEDIDECSENMCAQLCVNYPGGYTCYCDGKKGFKLAQDQKSCEVVSVCLPLNLDTKYELLYLAEQFAGVVLYLKFRLPEISRFSAEFDFRTYDSEGVILYAESIDHSAWLLIALRGGKIEVQLKNEHTSKITTGGDVINNGLWNMVSVEELEHSISIKIAKEAVMDINKPGPLFKPENGLLETKVYFAGFPRKVESELIKPINPRLDGCIRSWNLMKQGASGIKEIIQEKQNKHCLVTVEKGSYYPGSGIAQFHIDYNNVSSAEGWHVNVTLNIRPSTGTGVMLALVSGNNTVPFAVSLVDSTSEKSQDILLSVENTVIYRIQALSLCSDQQSHLEFRVNRNNLELSTPLKIETISHEDLQRQLAVLDKAMKAKVATYLGGLPDVPFSATPVNAFYNGCMEVNINGVQLDLDEAISKHNDIRAHSCPSVWKKTKNS
modifications: biotin (biotinylated, sites not stated)
With B2, the “fold change of the apparent interaction with MerTK against without MerTK” value in test [2] is about 2 fold.
